Measurements reported in patent US20140341881A1 (DERMADIS, published 2014).

Legend:
[1] = target: T1, human kallikrein 2 (hK2) (human, UniProt P20151 25-261); test: cell-based or functional assay
[2] = target: human kallikrein hK1 (human, UniProt P06870 25-262); test: cell-based or functional assay
[3] = target: T2, human plasma kallikrein (PK) (human, UniProt P03952 20-638); test: cell-based or functional assay
[4] = target: urokinase plasminogen activator (uPA) (UniProt P00749 21-431, limits assumed); test: cell-based or functional assay
[5] = target: T3, human neutrophil elastase (HNE) (human, UniProt P08246 30-247, limits assumed); test: cell-based or functional assay
T3 sequence (looked up): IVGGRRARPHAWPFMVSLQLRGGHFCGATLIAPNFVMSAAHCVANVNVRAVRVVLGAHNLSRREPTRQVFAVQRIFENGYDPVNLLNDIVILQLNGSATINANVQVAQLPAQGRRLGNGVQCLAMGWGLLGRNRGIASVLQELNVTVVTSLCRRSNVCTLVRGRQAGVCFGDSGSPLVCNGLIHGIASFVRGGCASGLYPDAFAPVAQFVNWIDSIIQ

[6] = target: T1, human kallikrein 2 (hK2); test: progress curve, pseudo-first order, fluorogenic substrate
Procedure: (§1) Under these conditions, a fixed amount of enzyme (2 nM) was mixed with different concentrations of inhibitor (0-800 nM) and an excess of substrate (10 μM). Each reaction was made in reaction buffer (50 mM Tris pH 7.5, 150 mM NaCl, 0,05% Triton X-100, 0.01% BSA) at 25° C. for 45 min and the rate of product formation was measured using a FLₓ800 fluorescence 96-well microplate reader (Biotek, USA). In this model, inhibition is considered to be irreversible over the course of reaction and the progress of enzyme activity is expressed by product formation (P), beginning at a rate (vz) and is inhibited over time (t) at a first-order rate (kobs), rate constant that is dependent only on inhibitor concentration.

[7] = target: T2, human plasma kallikrein (PK); test: as above
Procedure: as §1

[8] = target: T3, human neutrophil elastase (HNE); test: as above
Procedure: as §1

[9] = target: T1, human kallikrein 2 (hK2); test: residual enzyme activity against [I]o/[E]o, fluorogenic substrate
Procedure: (§2) The stoichiometry of inhibition (SI) values were determined for the inhibition of rACTWT and its variants with hK2 and different other enzymes. An initial test was made with a molar excess of rACT (100 fold) over hK2, PSA, hK1, chymotrypsin (Chtr), plasma kallikrein (PK), urokinase (uPA) and human neutrophile elastase (HNE) enzymes. The reaction was carried out for 30 min at 25° C. (90 min at 37° C. for PSA) in reaction buffer (50 mM Tris pH 7.5, 150 mM NaCl, 0,05% Triton X-100, 0.01% BSA) and residual enzyme activity was measured by adding fluorescent substrates (Z-Phe-Arg-AMC for hK1, hK2 and PK, Suc-Ala-Ala-Pro-Phe-AMC for Chtr, Z-Gly-Gly-Arg-AMC for uPA, MeOSuc-Ala-Ala-Pro-Val-AMC for HNE, and CFP-TFRSA-YFP (TFRSA SEQ ID NO:137) for PSA). Activity of enzyme in presence of inhibitors was compared to uninhibited reaction. For reactions where an inhibition was observed, SI was determined by incubating different concentrations of recombinant serpins. Using linear regression analysis of fractional activity (velocity of inhibited enzyme reaction/velocity of uninhibited enzyme reaction) versus the molar ratio of the inhibitor to enzyme ([Iₒ]/[Eₒ]), the stoichiometry of inhibition, corresponding to the abscissa intercept, was obtained.

[10] = target: T2, human plasma kallikrein (PK); test: as above
Procedure: as §2

[11] = target: T3, human neutrophil elastase (HNE); test: as above
Procedure: as §2

T2 sequence (P03952 20-638 limits assumed): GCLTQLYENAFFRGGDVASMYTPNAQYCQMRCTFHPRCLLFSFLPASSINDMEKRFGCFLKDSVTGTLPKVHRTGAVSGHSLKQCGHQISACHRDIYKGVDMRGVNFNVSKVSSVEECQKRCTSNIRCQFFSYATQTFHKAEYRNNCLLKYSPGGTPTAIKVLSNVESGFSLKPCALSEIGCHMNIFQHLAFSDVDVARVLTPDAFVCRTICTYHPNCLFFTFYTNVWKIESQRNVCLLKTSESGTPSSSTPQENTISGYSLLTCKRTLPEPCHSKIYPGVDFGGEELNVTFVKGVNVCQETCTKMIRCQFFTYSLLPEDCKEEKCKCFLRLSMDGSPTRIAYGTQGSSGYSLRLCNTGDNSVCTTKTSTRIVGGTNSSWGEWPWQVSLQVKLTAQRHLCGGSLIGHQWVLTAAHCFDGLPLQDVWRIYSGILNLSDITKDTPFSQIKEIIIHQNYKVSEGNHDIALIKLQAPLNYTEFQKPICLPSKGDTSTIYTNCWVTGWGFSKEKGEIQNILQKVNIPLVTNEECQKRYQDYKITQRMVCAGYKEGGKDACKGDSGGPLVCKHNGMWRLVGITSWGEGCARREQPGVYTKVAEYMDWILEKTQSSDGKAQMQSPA

B1: rACT6.1 (other)
chain: MRGSHHHHHHSRHPNSPLDEENLTQENQDRGTHVDLGLASANVDFAFSLYKQLVLKAPDKNVIFSPLSISTALAFLSLGAHNTTLTEILKGLKFNLTETSEAEIHQSFQHLLRTLNQSSDELQLSMGNAMFVKEQLSLLDRFTEDAKRLYGSEAFATDFQDSAAAKKLINDYVKNGTRGKITDLIKDLDSQTMMVLVNYIFFKAKWEMPFDPQDTHQSRFYLSKKKWVMVPMMSLHHLTIPYFRDEELSCTVVELKYTGNASALFILPDQDKMEEVEAMLLPETLKRWRDSLEFREIGELYLPKFSISRDYNLNDILLQLGIEEAFTSKADLSGITGARNLAVSQVVHKAVLDVFEEGTEASAATAVKIMTRSNAVETRTIVRFNRPFLMIIVPTDTQNIFFMSKVTNPKQA
notes: recombinant ACT variant, RSL substrate peptide MTRSN; N-terminal His tag, E. coli TG1; also called MD61; MD 61
Q: B1 was tested. Which INHIBITION % [1] did it give?
A: The INHIBITION % was 100%.

Q: What about the INHIBITION % [2] of the same binder?
A: The INHIBITION % was 0%.

Q: And the INHIBITION % [3]?
A: Its INHIBITION % is 100%.

Q: What about the INHIBITION % [4] of the same binder?
A: Its INHIBITION % is 0%.

Q: And the INHIBITION % [5]?
A: The INHIBITION % was 60%.

Q: What about the kon [6] of the same binder?
A: The kon was 3440 M⁻¹ s⁻¹.

Q: What about the kon [7] of the same binder?
A: Its kon is 8020 M⁻¹ s⁻¹.

Q: And the kon [8]?
A: Its kon is 1190 M⁻¹ s⁻¹.

Q: What about the “SI (stoichiometry of inhibition)” value [9] of the same binder?
A: The value was 19.

Q: And the “SI (stoichiometry of inhibition)” value [10]?
A: The value was 16.

Q: What about the “SI (stoichiometry of inhibition)” value [11] of the same binder?
A: The value was 159.
